Data as given in patent US7951549B2, “Methods for the identification of agents that inhibit mesenchymal-like tumor cells or their formation” (OSI Pharmaceuticals, Inc., priority 2008, dated 2011).

How the values were obtained:
H358 cells [1] = assay: Immunofluorescence and confocal imaging of E-cadherin and vimentin in ligand-treated H358 cells; format: cell-based, human; settings: cells treated for 7 days
Method: Cells were plated on coverslips on experimental day 0, stimulated with ligand on day 1 and refreshed with medium and ligand on day 3-4. On day 7, cells were fixed at room temperature for 10 minutes in 4% paraformaldehyde (EMS #15701)/PBS (Gibco #14190). Cells were blocked in 3% BSA/PBS and incubated with primary antibody (E-cadherin, Santa Cruz #sc21791 and Vimentin, Chemicon #AB5733) diluted in blocking buffer for two hours at room temperature. Cells were washed and incubated in secondary antibody (Invitrogen #A11029 and Chemicon #AP194R) followed by nuclear counterstain TO-PRO3 (Invitrogen #T3605). Coverslips were mounted on slides with Pro-Long Gold anti-fade reagent (Invitrogen P36934). Images were captured on a Leica DMRXE microcope with SP2 scanner using Leica Confocal Software.

H358 cells [2] = assay: Induction of EMT in H358 cells by growth factors and cytokines (immunoblot of EMT biomarkers); format: cell-based, human; settings: seven day treatment of H358
Method: The human line H358 was cultured in the appropriate ATCC recommended supplemented media. Growth factor and cytokine induced EMT was monitored over a 7-14 day period. […]
Cell lines were treated as indicated in the text and figure legends. […] Protein concentration was determined by micro-BCA assay (Pierce, #23227). […]

B1: OSM: oncostatin M (R&D Systems #295-OM) (protein, UniProt P13725 26-221, looked up)
Oncostatin-M: AAIGSCSKEYRVLLGQLQKQTDLMQDTSRLLDPYIRIQGLDVPKLREHCRERPGAFPSEETLRGLGRRGFLQTLNATLGCVLHRLADLEQRLPKAQDLERSGLNIEDLEKLQMARPNILGLRNNIYCMAQLLDNSDTAEPTKAGRGASQPPTPTPASDAFQRKLEGCRFLHGYHRFMHSVGRVFSKWGESPNRSRR
extent of EMT at the single cell level (E-cadherin and vimentin expression and localization) (H358 cells [1]): partial EMT
E-cadherin repression or vimentin induction as single agents (H358 cells [2]): neither HGF or OSM as single agents produced significant
